Data: publication PMC4919518
Residue numbers refer to the chain shown, from its start.

Columns and labels:
RsAgo delP45-W63 = molecular target: T1, RsAgo delP45-W63 (Rhodobacter sphaeroides (ATCC 17025D-5), UniProt A4WYU7 1-777, del45-63); experiment: fluorescence polarization; 5 mM Mg2+; same binding capacity as WT; FP: 20 mM HEPES-KOH pH 7.5, 200 mM NaCl, 5 mM MgCl2, 0.01 mg/ml E. coli total tRNA, 0.01% NP-40, 10 pM probe, 25 C; EMSA: 20 mM HEPES-KOH pH 7.5, 200 mM NaCl, 5
T1 sequence: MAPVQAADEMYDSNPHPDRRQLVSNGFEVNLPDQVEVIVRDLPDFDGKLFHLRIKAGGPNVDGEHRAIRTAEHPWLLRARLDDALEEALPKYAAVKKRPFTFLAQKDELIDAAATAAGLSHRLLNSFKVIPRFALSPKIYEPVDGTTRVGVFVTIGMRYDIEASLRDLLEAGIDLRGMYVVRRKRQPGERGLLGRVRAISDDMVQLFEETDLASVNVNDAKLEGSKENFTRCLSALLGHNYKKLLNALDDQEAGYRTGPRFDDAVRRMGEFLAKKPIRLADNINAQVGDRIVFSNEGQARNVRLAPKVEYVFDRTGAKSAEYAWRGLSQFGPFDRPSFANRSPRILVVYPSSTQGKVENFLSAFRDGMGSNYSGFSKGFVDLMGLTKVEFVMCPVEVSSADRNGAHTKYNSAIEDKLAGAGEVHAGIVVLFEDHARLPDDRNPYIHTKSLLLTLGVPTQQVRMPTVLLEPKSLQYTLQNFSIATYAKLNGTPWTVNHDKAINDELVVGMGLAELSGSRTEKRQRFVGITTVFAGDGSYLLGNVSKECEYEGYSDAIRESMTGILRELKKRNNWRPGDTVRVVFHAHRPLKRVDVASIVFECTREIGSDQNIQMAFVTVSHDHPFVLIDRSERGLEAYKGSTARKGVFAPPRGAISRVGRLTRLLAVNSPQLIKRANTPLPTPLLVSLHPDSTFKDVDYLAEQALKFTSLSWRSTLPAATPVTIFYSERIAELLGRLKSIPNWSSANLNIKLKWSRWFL

RsAgo K506A = molecular target: T2, RsAgo K506A (Rhodobacter sphaeroides (ATCC 17025D-5), UniProt A4WYU7 1-777, K506A); experiment: fluorescence polarization; 5 mM Mg2+; FP: 20 mM HEPES-KOH pH 7.5, 200 mM NaCl, 5 mM MgCl2, 0.01 mg/ml E. coli total tRNA, 0.01% NP-40, 10 pM probe, 25 C; EMSA: 20 mM HEPES-KOH pH 7.5, 200 mM NaCl, 5
T2 sequence: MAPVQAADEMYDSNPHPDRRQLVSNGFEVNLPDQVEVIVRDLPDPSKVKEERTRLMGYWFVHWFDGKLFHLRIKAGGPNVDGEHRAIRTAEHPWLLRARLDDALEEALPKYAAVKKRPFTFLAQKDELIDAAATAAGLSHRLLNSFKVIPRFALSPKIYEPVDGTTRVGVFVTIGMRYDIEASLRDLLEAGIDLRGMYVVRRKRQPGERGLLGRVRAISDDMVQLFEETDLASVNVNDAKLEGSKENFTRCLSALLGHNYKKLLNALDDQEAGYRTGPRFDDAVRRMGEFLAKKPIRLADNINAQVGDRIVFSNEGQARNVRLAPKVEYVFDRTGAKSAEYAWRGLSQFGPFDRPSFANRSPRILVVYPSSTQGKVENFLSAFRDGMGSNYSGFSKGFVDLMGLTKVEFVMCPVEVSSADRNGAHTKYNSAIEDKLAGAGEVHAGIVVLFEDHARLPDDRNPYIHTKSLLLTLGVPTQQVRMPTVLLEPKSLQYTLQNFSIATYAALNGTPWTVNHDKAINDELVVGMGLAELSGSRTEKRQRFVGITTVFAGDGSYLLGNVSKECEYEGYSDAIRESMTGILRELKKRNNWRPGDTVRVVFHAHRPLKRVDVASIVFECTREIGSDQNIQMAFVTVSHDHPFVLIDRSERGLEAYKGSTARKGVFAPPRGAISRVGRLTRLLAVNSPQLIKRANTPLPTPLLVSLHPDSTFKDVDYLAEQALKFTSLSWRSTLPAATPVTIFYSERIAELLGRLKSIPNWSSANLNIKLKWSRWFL

RsAgo R481A/T484A = molecular target: T3, RsAgo R481A/T484A (Rhodobacter sphaeroides (ATCC 17025D-5), UniProt A4WYU7 1-777, R481A;T484A); experiment: as above
T3 sequence: T2 sequence with R481A, T484A, A506K

Q: Does UUACAACCUACUACCUCG (ssRNA, 5'-phosphate) [5'P-RNA (5'U-RNA), FAM] bind (RsAgo delP45-W63)?
A: binds

Q: What about the Kd (RsAgo K506A) of the same binder?
A: 1030 ± 47 nM

Q: And the Kd (RsAgo R481A/T484A)?
A: 718 ± 36 nM
